Assay results published in US9533059 (GE HEALTHCARE, dated 2017).
Positions of bridges follow the written chain, without caps; N, C: chain ends.

Biological target: human c-Met receptor (human, UniProt P08581 25-1390)
Assay: cell-based or functional assay

Sequence of human c-Met receptor (P08581 25-1390): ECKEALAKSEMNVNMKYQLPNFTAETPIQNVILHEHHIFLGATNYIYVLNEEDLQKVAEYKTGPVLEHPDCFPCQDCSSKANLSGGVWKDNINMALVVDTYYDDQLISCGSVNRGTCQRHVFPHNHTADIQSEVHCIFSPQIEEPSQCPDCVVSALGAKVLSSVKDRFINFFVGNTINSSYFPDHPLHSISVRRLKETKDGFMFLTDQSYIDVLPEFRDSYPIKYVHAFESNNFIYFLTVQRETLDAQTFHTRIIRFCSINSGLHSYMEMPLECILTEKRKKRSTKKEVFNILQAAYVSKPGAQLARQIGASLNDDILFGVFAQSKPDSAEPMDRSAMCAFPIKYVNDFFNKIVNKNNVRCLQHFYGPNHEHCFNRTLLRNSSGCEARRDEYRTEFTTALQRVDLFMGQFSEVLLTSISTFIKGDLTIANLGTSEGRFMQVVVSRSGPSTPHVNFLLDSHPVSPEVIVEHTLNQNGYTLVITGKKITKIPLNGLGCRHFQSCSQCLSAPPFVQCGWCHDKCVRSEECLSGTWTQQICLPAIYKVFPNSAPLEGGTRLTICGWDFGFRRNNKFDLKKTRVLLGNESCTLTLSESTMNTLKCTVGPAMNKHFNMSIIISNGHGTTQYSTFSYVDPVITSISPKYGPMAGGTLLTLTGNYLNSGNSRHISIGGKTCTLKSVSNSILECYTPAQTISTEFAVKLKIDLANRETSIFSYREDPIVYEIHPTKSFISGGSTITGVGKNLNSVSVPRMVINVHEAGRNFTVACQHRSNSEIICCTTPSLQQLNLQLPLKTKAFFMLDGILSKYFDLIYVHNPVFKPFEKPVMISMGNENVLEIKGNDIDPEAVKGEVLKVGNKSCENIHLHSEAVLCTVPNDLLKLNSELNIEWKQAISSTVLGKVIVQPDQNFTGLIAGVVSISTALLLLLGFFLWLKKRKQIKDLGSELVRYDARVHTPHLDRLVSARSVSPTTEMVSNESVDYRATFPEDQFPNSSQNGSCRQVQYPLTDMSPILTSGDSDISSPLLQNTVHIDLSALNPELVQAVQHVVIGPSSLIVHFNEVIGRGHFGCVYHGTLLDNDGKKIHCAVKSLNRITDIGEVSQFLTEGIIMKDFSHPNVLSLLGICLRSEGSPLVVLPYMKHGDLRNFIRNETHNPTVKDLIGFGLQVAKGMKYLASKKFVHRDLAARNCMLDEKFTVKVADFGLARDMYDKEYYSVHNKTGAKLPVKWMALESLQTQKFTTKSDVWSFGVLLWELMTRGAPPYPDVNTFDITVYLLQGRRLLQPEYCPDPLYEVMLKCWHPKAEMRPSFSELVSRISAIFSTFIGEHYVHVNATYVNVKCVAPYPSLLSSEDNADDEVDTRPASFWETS

HT-29 tumour uptake of Compound 3B with 1000-fold excess unlabelled peptide: 1.1 % id/g | reduction in HT-29 tumour uptake of Compound 3B with 1000-fold excess unlabelled peptide: 40%
Binder: Ac-AGSCYCSGPPRFECWCYETEGTGGGK(N‑(4-fluorobenzylidene)aminooxyacetyl)-NH2 (disulfide 6-14, 4-16) [Compound 3A]
